The record followed here is patent US20250277048A1 (Regeneron, published 2025).

In assay [1] the target is T1, human CD40 extracellular domain expressed with a C-terminal myc-myc-hexahistidine tag (human).
T1 construct: also called hCD40-MMH; hCD40-mmH
The experiment in a line: SPR Biacore 4000, mAb captured, 25C; 25° C. As to the method:
The equilibrium dissociation constants (KD) for anti-CD40 bivalent and bispecific monoclonal antibodies (mAbs) were determined using a real-time surface plasmon resonance (SPR)-based Biacore 4000 biosensor. All binding studies were performed in 10 mM HEPES, 150 mM NaCl, 3 mM EDTA, and 0.05% v/v surfactant Tween-20, pH 7.4 (HBS-ET) running buffer at 25° C. and 37° C. The Biacore CM5 sensor surface was first derivatized by amine coupling with a monoclonal mouse anti-human Fc antibody (REGN2567) to capture anti-CD40 bivalent parental and anti-CD40×CD40 bispecific antibodies. […] The dissociation of different CD40 reagents bound to anti-CD40 bivalent parental and anti-CD40×CD40 bispecific antibodies was monitored for 10 minutes in HBS-ET running buffer. […]
(§1) The association rate (ka) and dissociation rate (kd) were determined by fitting the real-time binding sensorgrams to a 1:1 binding model with mass transport limitation using Scrubber 2.0c curve-fitting software. Binding dissociation equilibrium constant (KD) and dissociative half-life (t_{1/2}) were calculated from the kinetic rates as: KD(M)=kd/kₐ, and t_{1/2} (min)=[ln(2)/(60*kd)].
(SPR reads the build-up and loss of mass on a sensor chip optically.)

The target in assay [2] is T2, monkey CD40 extracellular domain expressed with a C-terminal myc-myc-hexahistidine tag (monkey).
T2 construct: also called mfCD40-MMH; REGN3097
T2 chain: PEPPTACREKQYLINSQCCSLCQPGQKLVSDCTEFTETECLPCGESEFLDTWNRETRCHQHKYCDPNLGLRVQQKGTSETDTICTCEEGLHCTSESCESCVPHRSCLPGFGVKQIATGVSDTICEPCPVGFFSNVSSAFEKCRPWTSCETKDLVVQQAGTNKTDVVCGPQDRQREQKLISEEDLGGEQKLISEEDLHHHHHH
The experiment in a line: SPR Biacore 4000, mAb captured, 37C. As to the method: The equilibrium dissociation constants (KD) for anti-CD40 bivalent and bispecific monoclonal antibodies (mAbs) were determined using a real-time surface plasmon resonance (SPR)-based Biacore 4000 biosensor. All binding studies were performed in 10 mM HEPES, 150 mM NaCl, 3 mM EDTA, and 0.05% v/v surfactant Tween-20, pH 7.4 (HBS-ET) running buffer at 25° C. and 37° C. The Biacore CM5 sensor surface was first derivatized by amine coupling with a monoclonal mouse anti-human Fc antibody (REGN2567) to capture anti-CD40 bivalent parental and anti-CD40×CD40 bispecific antibodies. Different concentrations of CD40 reagents, human CD40 extracellular domain expressed with a C-terminal myc-myc-hexahistidine tag (SEQ ID NO: 1114) (“hCD40-MMH”; REGN3094; SEQ ID NO: 53), monkey CD40 extracellular domain expressed with a C-terminal myc-myc-hexahistidine tag (SEQ ID NO: 1114) (“mfCD40-MMH”; REGN3097; SEQ ID NO: 54), and mouse CD40 extracellular domain expressed with a C-terminal myc-myc-hexahistidine tag (SEQ ID NO: 1114) (“mCD40-MMH”; REGN3098; SEQ ID NO: 55), at concentrations ranging from 3.7 nM to 100 nM or 3.3 nM to 90 nM in a series of 3-fold dilutions prepared in HBS-ET running buffer were injected at a flow rate of 30 μL/min for 4 minutes or 50 μL/min for 5 minutes. The dissociation of different CD40 reagents bound to anti-CD40 bivalent parental and anti-CD40×CD40 bispecific antibodies was monitored for 10 minutes in HBS-ET running buffer. At the end of each cycle, the anti-CD40 bivalent parental and anti-CD40×CD40 bispecific antibodies capture surface was regenerated using a 12 sec injection of 20 mM H₃PO₄.
as §1

In assay [3] the target is T3, human CD40 (hCD40) expressed on cells (human, UniProt P25942 21-277). The experiment in a line: cell-based or functional assay.
T3 sequence (P25942 21-277): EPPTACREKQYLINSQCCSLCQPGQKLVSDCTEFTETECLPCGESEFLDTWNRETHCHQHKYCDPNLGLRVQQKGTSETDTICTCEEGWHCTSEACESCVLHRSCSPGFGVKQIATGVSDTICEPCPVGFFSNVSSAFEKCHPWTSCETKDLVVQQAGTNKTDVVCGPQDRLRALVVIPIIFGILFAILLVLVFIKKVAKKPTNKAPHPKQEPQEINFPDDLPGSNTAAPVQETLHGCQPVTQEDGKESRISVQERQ
The target in assay [4] is T3, human CD40 (hCD40) expressed on cells. The experiment in a line: cell-based or functional assay. The source holds these as a separate data set.
Assay [5] shares this target. The experiment in a line: cell-based or functional assay. The source holds these as a separate data set.

B1: 21519P2 (antibody, human IgG4 S228P, kappa, V domains shown)
VH: QLQLQESGPGLVRPSETLSLTCSVSGASMNTNNYYWGWIRQPPGKGLEWIGSGYYNGNTYYNPSLKSRVTISVDTSKNQFSLKLNSVTAADTAVYYCARQTPPRIIGSPNIWGQGTMVTVSS
VL: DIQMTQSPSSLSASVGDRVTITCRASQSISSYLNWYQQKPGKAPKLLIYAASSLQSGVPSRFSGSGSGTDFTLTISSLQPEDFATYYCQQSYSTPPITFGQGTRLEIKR
notes: parental bivalent anti-CD40 mAb; common light chain; also called H4sH21519P2
As a reminder, the kon is the rate constant with which the complex forms. The molecule B1 registered a kon in assay [1] of 385000 M⁻¹ s⁻¹.

B2: 30027P2 (antibody, human IgG4 S228P, kappa, V domains shown)
VH: EVQLVESGGGLVQPGGSLRLSCAASGFTFSSYAMNWVRQAPGKGLEWVSIISGTIGKTYYADSVKGRFTISRDNSKNTLYLQMNSLRGEDTAVYYCAKDTERDITGSPFDYWGQGTLVTVSS
VL: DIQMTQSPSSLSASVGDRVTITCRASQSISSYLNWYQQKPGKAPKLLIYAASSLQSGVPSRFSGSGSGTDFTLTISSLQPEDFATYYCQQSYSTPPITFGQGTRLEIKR
notes: parental bivalent anti-CD40 mAb; common light chain; also called H4sH30027P2
By Kd is commonly meant the equilibrium constant for the complex coming apart. For orientation: koff means the first-order rate constant of dissociation. Consider B2, for which, in assay [2], the Kd is 3.16 nM, the koff amounted to 0.00333 s⁻¹, the kon was determined as 1.05e+06 M⁻¹ s⁻¹ and the t1/2 was found to be 3.5 min.

B3: REGN16431 (bispecific antibody, human IgG4 S228P, kappa)
heavy 1: QLQLQESGPGLVRPSETLSLTCSVSGASMNTNNYYWGWIRQPPGKGLEWIGSGYYNGNTYYNPSLKSRVTISVDTSKNQFSLKLNSVTAADTAVYYCARQTPPRIIGSPNIWGQGTMVTVSSASTKGPSVFPLAPCSRSTSESTAALGCLVKDYFPEPVTVSWNSGALTSGVHTFPAVLQSSGLYSLSSVVTVPSSSLGTKTYTCNVDHKPSNTKVDKRVESKYGPPCPPCPAPPVAGPSVFLFPPKPKDTLMISRTPEVTCVVVDVSQEDPEVQFNWYVDGVEVHNAKTKPREEQFNSTYRVVSVLTVLHQDWLNGKEYKCKVSNKGLPSSIEKTISKAKGQPREPQVYTLPPSQEEMTKNQVSLTCLVKGFYPSDIAVEWESNGQPENNYKTTPPVLDSDGSFFLYSRLTVDKSRWQEGNVFSCSVMHEALHNHYTQKSLSLSLGK
heavy 2: EVQLVESGGGLVQPGGSLRLSCAASGFTFGSYGMAWVRQAPGKGLEWVSAISGSGDYTNYADSVKRRFTISRDNSKNTLYLQMSSLRAEDTAVYYCAKEKTGTTGYLYSGMDVWGQGTTVTVSSASTKGPSVFPLAPCSRSTSESTAALGCLVKDYFPEPVTVSWNSGALTSGVHTFPAVLQSSGLYSLSSVVTVPSSSLGTKTYTCNVDHKPSNTKVDKRVESKYGPPCPPCPAPPVAGPSVFLFPPKPKDTLMISRTPEVTCVVVDVSQEDPEVQFNWYVDGVEVHNAKTKPREEQFNSTYRVVSVLTVLHQDWLNGKEYKCKVSNKGLPSSIEKTISKAKGQPREPQVYTLPPSQEEMTKNQVSLTCLVKGFYPSDIAVEWESNGQPENNYKTTPPVLDSDGSFFLYSRLTVDKSRWQEGNVFSCSVMHEALHNRFTQKSLSLSPGK
light: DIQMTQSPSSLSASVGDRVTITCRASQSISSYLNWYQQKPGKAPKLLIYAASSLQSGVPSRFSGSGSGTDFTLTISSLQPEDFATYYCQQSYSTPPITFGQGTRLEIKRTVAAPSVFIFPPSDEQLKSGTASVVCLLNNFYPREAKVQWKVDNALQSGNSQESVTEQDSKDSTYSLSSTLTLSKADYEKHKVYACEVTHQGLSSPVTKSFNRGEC
notes: D1 arm from 21519P2, D2 arm from 21520P2, common light chain; also called CD40xCD40 (21519 x 21520)
B3: in assay [3], the “% max blockade relative to no mAb, TNFa, donor 1” value came out at 44.7%; the “% max blockade relative to no mAb, TNFa, donor 2” value came to 74.1%; the “% max blockade relative to no mAb, TNFa, donor 3” value was 70.4%. In assay [4], the “% max blockade relative to no mAb, IL-10, donor 1” value stood at 80.7%; the “% max blockade relative to no mAb, IL-10, donor 2” value is 86.9%; the “% max blockade relative to no mAb, IL-10, donor 3” value was 89.3%. In assay [5], the “% max blockade relative to no mAb, IL-6, donor 1” value stood at 84%; the “% max blockade relative to no mAb, IL-6, donor 2” value worked out at 92.7%; the “% max blockade relative to no mAb, IL-6, donor 3” value stood at 92.7%.

B4: REGN16432 (bispecific antibody, human IgG4 S228P, kappa)
heavy 1: EVQLVESGGGLVQPGGSLRLSCAASGFTFSSYAMNWVRQAPGKGLEWVSIISGTIGKTYYADSVKGRFTISRDNSKNTLYLQMNSLRGEDTAVYYCAKDTERDITGSPFDYWGQGTLVTVSSASTKGPSVFPLAPCSRSTSESTAALGCLVKDYFPEPVTVSWNSGALTSGVHTFPAVLQSSGLYSLSSVVTVPSSSLGTKTYTCNVDHKPSNTKVDKRVESKYGPPCPPCPAPPVAGPSVFLFPPKPKDTLMISRTPEVTCVVVDVSQEDPEVQFNWYVDGVEVHNAKTKPREEQFNSTYRVVSVLTVLHQDWLNGKEYKCKVSNKGLPSSIEKTISKAKGQPREPQVYTLPPSQEEMTKNQVSLTCLVKGFYPSDIAVEWESNGQPENNYKTTPPVLDSDGSFFLYSRLTVDKSRWQEGNVFSCSVMHEALHNHYTQKSLSLSLGK
heavy 2: B3 heavy 2
light: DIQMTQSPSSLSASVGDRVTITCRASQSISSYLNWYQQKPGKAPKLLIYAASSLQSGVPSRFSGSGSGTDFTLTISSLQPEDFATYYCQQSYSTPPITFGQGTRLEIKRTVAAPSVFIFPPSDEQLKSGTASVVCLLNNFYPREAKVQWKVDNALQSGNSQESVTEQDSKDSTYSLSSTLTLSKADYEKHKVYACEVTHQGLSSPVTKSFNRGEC
notes: D1 arm from 30027P2, D2 arm from 21520P2, common light chain; also called CD40xCD40 (30027 x 21520)
In the case of B4, in assay [3], the “% max blockade relative to no mAb, TNFa, donor 1” value was determined as 53.5%; the “% max blockade relative to no mAb, TNFa, donor 2” value was determined as 68.4%; the “% max blockade relative to no mAb, TNFa, donor 3” value was found to be 69.1%. Besides, in assay [4], the “% max blockade relative to no mAb, IL-10, donor 1” value worked out at 81.5%; the “% max blockade relative to no mAb, IL-10, donor 2” value turned out to be 94.5%; the “% max blockade relative to no mAb, IL-10, donor 3” value was found to be 90.6%. In assay [5], the “% max blockade relative to no mAb, IL-6, donor 1” value worked out at 83.5%; the “% max blockade relative to no mAb, IL-6, donor 2” value turned out to be 92%; the “% max blockade relative to no mAb, IL-6, donor 3” value was 92%.
